Experimental data as given in patent publication USRE50880 (Kymab Limited, dated 2026).
One block for each binder: values may come before it.

Target: Recombinant Human OX40L (Leader sequence, Isoleucine Zipper and FLAG Sequence Included) (human)
Test: cell-based or functional assay

Chain of Recombinant Human OX40L (Leader sequence, Isoleucine Zipper and FLAG Sequence Included) (human) (chain, as listed by the source limits assumed): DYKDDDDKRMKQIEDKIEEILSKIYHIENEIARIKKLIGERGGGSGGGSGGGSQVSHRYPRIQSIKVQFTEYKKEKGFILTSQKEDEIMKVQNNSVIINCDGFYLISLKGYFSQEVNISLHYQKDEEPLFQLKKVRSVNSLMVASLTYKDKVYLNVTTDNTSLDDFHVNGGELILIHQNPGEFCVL

Primary T-cell Assay IC50 nM (recombinant OX40L induced IL2 release from primary human T cells): 0.81 nM
B1: 2D10 (human) (antibody, human IgG4 S228P, kappa, V domains shown)
VH: EVQLVESGGGLVQPGGSLRLSCAASGFTFSNYAMNWVRQAPGKGLEWVSTISGSGGATRYADSVKGRFTISRDNSRNTVYLQMNSLRVEDTAVFYCTKDRLIMATVRGPYYYGMDVWGQGTTVTVSS
VL: DIQMTQSPSSLSASVGDRVTITCRASQSISSYLNWYQQKPGKAPNLLIYAASSLQSGVPSRFSGSGSETDFTLTISSLQPEDFATYYCQQSHSVSFTFGPGTKVDIKR

Primary T-cell Assay IC50 nM (recombinant OX40L induced IL2 release from primary human T cells): 0.83 nM
B2: 10A07 (human) (antibody, V domains shown)
VH: EVQLVESGGVLVQPGGSLRLSCAASGFTFSSYIMTWVRQAPGKGLEWVSGISGSGGGTYYADSMKGRFTISRDNSKNTLYLQMNSLRVEDTAVYYCAKDRLGPITLVRGGYYYGMDVWGQGTTVTVSS
VL: DIQMTQSPSSLSASVGDRVTITCRASQSISDYLNWYQQKPGKAPKFLIYAASSLQSGVPSRFSGSGSGTDFTLTVSSLQPEDFATYYCQQSYSTPRTFGQGTRVEIKR
